From patent US20220389118A1 (Chugai, published 2022)

T1: human FcγRIIa type R extracellular domain with C-terminal His tag (human, UniProt P12318 34-217)
T1 construct: extracellular domain; also called FcγRIIaR; FcγRIIa(R)
T1 sequence (looked up): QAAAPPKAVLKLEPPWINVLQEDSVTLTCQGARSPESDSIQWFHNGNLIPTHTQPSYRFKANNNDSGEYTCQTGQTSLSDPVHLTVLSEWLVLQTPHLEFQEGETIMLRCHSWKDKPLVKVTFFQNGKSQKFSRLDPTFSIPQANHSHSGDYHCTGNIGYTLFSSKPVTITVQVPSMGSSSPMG

T2: human FcγRIIa type H extracellular domain with C-terminal His tag (human, UniProt P12318 34-217)
T2 construct: extracellular domain; also called FcγRIIaH; FcγRIIa(H)
T2 sequence (looked up): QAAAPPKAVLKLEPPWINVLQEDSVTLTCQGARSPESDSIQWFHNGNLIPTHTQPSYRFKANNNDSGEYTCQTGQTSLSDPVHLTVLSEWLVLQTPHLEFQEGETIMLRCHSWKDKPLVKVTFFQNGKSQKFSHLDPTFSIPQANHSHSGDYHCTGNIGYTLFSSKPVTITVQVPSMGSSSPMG

T3: human FcγRIIb extracellular domain with C-terminal His tag (human, UniProt P31994 43-217)
T3 construct: extracellular domain
T3 sequence (looked up): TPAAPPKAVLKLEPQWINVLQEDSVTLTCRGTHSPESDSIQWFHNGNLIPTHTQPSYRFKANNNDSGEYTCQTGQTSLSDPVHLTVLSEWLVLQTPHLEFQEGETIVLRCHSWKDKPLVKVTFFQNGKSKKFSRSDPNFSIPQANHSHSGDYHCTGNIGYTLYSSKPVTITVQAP


Columns and labels:
[1] = target: T1, human FcγRIIa type R extracellular …; test: SPR (Biacore)
[2] = target: T2, human FcγRIIa type H extracellular …; test: SPR (Biacore)
[3] = target: T3, human FcγRIIb extracellular domain with …; test: SPR (Biacore), ratio of KDs
[4] = target: T4, human FcγRIa extracellular domain with C-terminal His tag (human, UniProt P12314 16-292); test: SPR (Biacore)
T4 construct: extracellular domain

[5] = target: T3, human FcγRIIb extracellular domain with …; test: SPR (Biacore)
[6] = target: T1, human FcγRIIa type R extracellular …; test: SPR (Biacore), parent IL6R-B3/IL6R-L
[7] = target: T3, human FcγRIIb extracellular domain with …; test: SPR (Biacore), parent IL6R-B3/IL6R-L

T4 sequence (P12314 16-292): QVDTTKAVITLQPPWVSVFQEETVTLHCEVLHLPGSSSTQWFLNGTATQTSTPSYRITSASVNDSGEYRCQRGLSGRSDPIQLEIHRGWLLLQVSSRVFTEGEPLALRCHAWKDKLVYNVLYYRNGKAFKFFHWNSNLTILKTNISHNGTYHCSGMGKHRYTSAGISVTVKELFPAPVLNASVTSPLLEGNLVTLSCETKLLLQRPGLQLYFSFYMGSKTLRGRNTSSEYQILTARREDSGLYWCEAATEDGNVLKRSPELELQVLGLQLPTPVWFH

Row | Kd [1] [nM] | Kd [2] [nM] | KD(IIaH)/KD(IIb) [3] | KD(IIaR)/KD(IIb) [3] | Kd [4] [nM] | Kd [5] [nM] | KD(IIaR) parent/KD(IIaR) altered polypeptide [6] | KD(IIb) parent/KD(IIb) altered polypeptide [7] | Binder
1 | 180 | 1600 |  |  |  |  |  |  | IL6R-BP438/IL6R-L (antibody, human IgG1, kappa, copies: 2 + 2) heavy: QVQLQESGPGLVKPSETLSLTCAVSGHSISHDHAWSWVRQPPGEGLEWIGFISYSGITNYNPSLQGRVTISRDNSKNTLYLQMNSLRAEDTAVYYCARSLARTTAMDYWGEGTLVTVSSASTKGPSVFPLAPSSKSTSGGTAALGCLVKDYFPEPVTVSWNSGALTSGVHTFPAVLQSSGLYSLSSVVTVPSSSLGTQTYICNVNHKPSNTKVDKKVEPKSCDKTHTCPPCPAPDLLGDDSVFLFPPKPKDTLMISRTPEVTCVVVDVAEEDGEVKFNWYVDGVEVHNAKTKPREEQYNSTYRVVSVLTVLHQDWLNGKEYKCKVSNKALPRPTEKTISKAKGQPREPQVYTLPPSRDELTKNQVSLTCLVKGFYPSDIAVEWESNGQPENNYKTTPPVLDSDGSFFLYSKLTVDKSRWQQGNVFSCSVMHEALHNHYTQESLSLSP light: not shown
2 | 43 | 870 | 870 | 42.8 | 1.3 | 1 | 25.7 | 3100 | IL6R-BP489/IL6R-L (antibody, human IgG1, kappa, copies: 2 + 2) heavy: QVQLQESGPGLVKPSETLSLTCAVSGHSISHDHAWSWVRQPPGEGLEWIGFISYSGITNYNPSLQGRVTISRDNSKNTLYLQMNSLRAEDTAVYYCARSLARTTAMDYWGEGTLVTVSSASTKGPSVFPLAPSSKSTSGGTAALGCLVKDYFPEPVTVSWNSGALTSGVHTFPAVLQSSGLYSLSSVVTVPSSSLGTQTYICNVNHKPSNTKVDKKVEPKSCDKTHTCPPCPAPDLLGDDSVFLFPPKPKDTLMISRTPEVTCVVIDVAEEDGEVKFNWYVDGVEVHNAKTKPREEQDNSTYRVVSVLTVLHQDWLNGKEYKCKVSNKALPRPIEKTISKAKGQPREPQVYTLPPSRDELTKNQVSLTCLVKGFYPSDIAVEWESNGQPENNYKTTPMVLDSDGSFFLYSKLTVDKSRWQQGNVFSCSVMHEALHNHYTQESLSLSP light: not shown
3 |  | 4000 |  |  | 6 | 3.8 |  |  | IL6R-BP510/IL6R-L (antibody, human IgG1, kappa, copies: 2 + 2) heavy: QVQLQESGPGLVKPSETLSLTCAVSGHSISHDHAWSWVRQPPGEGLEWIGFISYSGITNYNPSLQGRVTISRDNSKNTLYLQMNSLRAEDTAVYYCARSLARTTAMDYWGEGTLVTVSSASTKGPSVFPLAPSSKSTSGGTAALGCLVKDYFPEPVTVSWNSGALTSGVHTFPAVLQSSGLYSLSSVVTVPSSSLGTQTYICNVNHKPSNTKVDKKVEPKSCDKTHTCPPCPAPELLGDDSVFLFPPKPKDTLMISRTPEVTCVVIDVAEEDGPVKFNWYVDGVEVHNAKTKPREEQYNSTYRVVSVLTVLHQDWLNGKEYKCKVSNKALPRPIEKTISKAKGQPREPQVYTLPPSRDELTKNQVSLTCLVKGFYPSDIAVEWESNGQPENNYKTTPPVLDSDGSFFLYSKLTVDKSRWQQGNVFSCSVMHEALHNHYTQESLSLSP light: not shown
4 | 330 | 4900 |  |  |  | 9 |  |  | IL6R-BP558/IL6R-L (antibody, human IgG1, kappa, copies: 2 + 2) heavy: QVQLQESGPGLVKPSETLSLTCAVSGHSISHDHAWSWVRQPPGEGLEWIGFISYSGITNYNPSLQGRVTISRDNSKNTLYLQMNSLRAEDTAVYYCARSLARTTAMDYWGEGTLVTVSSASTKGPSVFPLAPSSKSTSGGTAALGCLVKDYFPEPVTVSWNSGALTSGVHTFPAVLQSSGLYSLSSVVTVPSSSLGTQTYICNVNHKPSNTKVDKKVEPKSCDKTHTCPPCPAPELLGDDSVFLFPPKPKDTLMISRTPEVTCVVIDVGEEDGDVKFNWYVDGVEVHNAKTKPREEQYNSTYRVVSVLTVLHQDWLNGKEYKCKVSNKALPRPIEKTISKAKGQPREPQVYTLPPSRDELTKNQVSLTCLVKGFYPSDIAVEWESNGQPENNYKTTPPVLDSDGSFFLYSKLTVDKSRWQQGNVFSCSVMHEALHNHYTQESLSLSP light: not shown
5 |  | 2300 |  |  | 8 |  |  |  | IL6R-BP554/IL6R-L (antibody, human IgG1, kappa, copies: 2 + 2) heavy: QVQLQESGPGLVKPSETLSLTCAVSGHSISHDHAWSWVRQPPGEGLEWIGFISYSGITNYNPSLQGRVTISRDNSKNTLYLQMNSLRAEDTAVYYCARSLARTTAMDYWGEGTLVTVSSASTKGPSVFPLAPSSKSTSGGTAALGCLVKDYFPEPVTVSWNSGALTSGVHTFPAVLQSSGLYSLSSVVTVPSSSLGTQTYICNVNHKPSNTKVDKKVEPKSCDKTHTCPPCPAPELLGDDSVFLFPPKPKDTLMISRTPEVTCVVIDVAEEDGDVKFNWYVDGVEVHNAKTKPREEQYNSTYRVVSVLTVLHQDWLNGKEYKCKVSNKALPRPIEKTISKAKGQPREPQVYTLPPSRDELTKNQVSLTCLVKGFYPSDIAVEWESNGQPENNYKTTPPVLDSDGSFFLYSKLTVDKSRWQQGNVFSCSVMHEALHNHYTQESLSLSP light: not shown
6 | 85 | 960 | 236 | 21 | 2.1 | 4.1 | 12.9 | 764 | IL6R-BP497/IL6R-L (antibody, human IgG1, kappa, copies: 2 + 2) heavy: QVQLQESGPGLVKPSETLSLTCAVSGHSISHDHAWSWVRQPPGEGLEWIGFISYSGITNYNPSLQGRVTISRDNSKNTLYLQMNSLRAEDTAVYYCARSLARTTAMDYWGEGTLVTVSSASTKGPSVFPLAPSSKSTSGGTAALGCLVKDYFPEPVTVSWNSGALTSGVHTFPAVLQSSGLYSLSSVVTVPSSSLGTQTYICNVNHKPSNTKVDKKVEPKSCDKTHTCPPCPAPDLLGDDSVFLFPPKPKDTLMISRTPEVTCVVIDVAEEDGEVKFNWYVDGVEVHNAKTKPREEQYNSTYRVVSVLTVLHQDWLNGKEYKCKVSNKGLPRPIEKTISKAKGQPREPQVYTLPPSRDELTKNQVSLTCLVKGFYPSDIAVEWESNGQPENNYKTTPPVLDSDGSFFLYSKLTVDKSRWQQGNVFSCSVMHEALHNHYTQESLSLSP light: not shown
7 | 470 | 3700 | 201 | 25.5 | 1.2 | 18 | 2.3 | 168 | IL6R-BP496/IL6R-L (antibody, human IgG1, kappa, copies: 2 + 2) heavy: QVQLQESGPGLVKPSETLSLTCAVSGHSISHDHAWSWVRQPPGEGLEWIGFISYSGITNYNPSLQGRVTISRDNSKNTLYLQMNSLRAEDTAVYYCARSLARTTAMDYWGEGTLVTVSSASTKGPSVFPLAPSSKSTSGGTAALGCLVKDYFPEPVTVSWNSGALTSGVHTFPAVLQSSGLYSLSSVVTVPSSSLGTQTYICNVNHKPSNTKVDKKVEPKSCDKTHTCPPCPAPDLLGDDSVFLFPPKPKDTLMISRTPEVTCVVIDVAEEDGEVKFNWYVDGVEVHNAKTKPREEQDNSTYRVVSVLTVLHQDWLNGKEYKCKVSNKALPAPIEKTISKAKGQPREPQVYTLPPSRDELTKNQVSLTCLVKGFYPSDIAVEWESNGQPENNYKTTPPVLDSDGSFFLYSKLTVDKSRWQQGNVFSCSVMHEALHNHYTQESLSLSP light: not shown
8 | 39 | 840 | 730 | 33.8 | 1.2 | 1.2 | 28.3 | 2700 | IL6R-BP487/IL6R-L (antibody, human IgG1, kappa, copies: 2 + 2) heavy: QVQLQESGPGLVKPSETLSLTCAVSGHSISHDHAWSWVRQPPGEGLEWIGFISYSGITNYNPSLQGRVTISRDNSKNTLYLQMNSLRAEDTAVYYCARSLARTTAMDYWGEGTLVTVSSASTKGPSVFPLAPSSKSTSGGTAALGCLVKDYFPEPVTVSWNSGALTSGVHTFPAVLQSSGLYSLSSVVTVPSSSLGTQTYICNVNHKPSNTKVDKKVEPKSCDKTHTCPPCPAPDLLGDDSVFLFPPKPKDTLMISRTPEVTCVVIDVAEEDGEVKFNWYVDGVEVHNAKTKPREEQYNSTYRVVSVLTVLHQDWLNGKEYKCKVSNKALPRPIEKTISKAKGQPREPQVYTLPPSRDELTKNQVSLTCLVKGFYPSDIAVEWESNGQPENNYKTTPMVLDSDGSFFLYSKLTVDKSRWQQGNVFSCSVMHEALHNHYTQESLSLSP light: not shown
9 | 120 | 2200 | 724 | 38.8 | 5.3 | 3 | 9.3 | 1020 | IL6R-BP491/IL6R-L (antibody, human IgG1, kappa, also called IL6R-491/IL6R-L; copies: 2 + 2) heavy: QVQLQESGPGLVKPSETLSLTCAVSGHSISHDHAWSWVRQPPGEGLEWIGFISYSGITNYNPSLQGRVTISRDNSKNTLYLQMNSLRAEDTAVYYCARSLARTTAMDYWGEGTLVTVSSASTKGPSVFPLAPSSKSTSGGTAALGCLVKDYFPEPVTVSWNSGALTSGVHTFPAVLQSSGLYSLSSVVTVPSSSLGTQTYICNVNHKPSNTKVDKKVEPKSCDKTHTCPPCPAPELLGDDSVFLFPPKPKDTLMISRTPEVTCVVIDVAEEDGEVKFNWYVDGVEVHNAKTKPREEQDNSTYRVVSVLTVLHQDWLNGKEYKCKVSNKALPRPIEKTISKAKGQPREPQVYTLPPSRDELTKNQVSLTCLVKGFYPSDIAVEWESNGQPENNYKTTPPVLDSDGSFFLYSKLTVDKSRWQQGNVFSCSVMHEALHNHYTQESLSLSP light: not shown
